The target of assay [1] is T1, endogenous α-synuclein (Rattus norvegicus, UniProt P37377).
T1 construct: endogenous in cells; host or cells: primary rat cortical neurons (14 DIV) and primary rat ventral midbrain neurons (3 DIV)
The assay is described as follows: Knockdown of endogenous α-synuclein in primary cortical neuron cultures, immunoblot. It is filed as cell-based. The procedure:
(§1) Primary rat neuron cultures were prepared from embryos of pregnant Sprague-Dawley rats (E18). The experimental protocol was approved by the University of British Columbia Animal Care Committee. Briefly, the cortical tissue or ventral midbrain tissue was isolated into ice cold HBSS (Invitrogen, 14170-112) and then digested with 0.25% trypsin-EDTA at 37° C. for 30 min. After washing with warm DMEM (supplemented with 10% FBS) three times, neurons were suspended in neuron culture media and dissociated by trituration using varying sizes of pipettes. Neurons were then centrifuged, and the pellet was re-suspended in culture media, washed twice with culture media, and plated on the poly-D-lysine-coated plates. Neuron culture was maintained in the 37° C. incubator with […] and 5% CO2. The morning after culturing, 2/3 of the neuron culture media was replaced with fresh neuron culture media. Media was then replaced every 3-4 days. Primary rat cortical neuron culture was used 14 days in vitro (DIV) and primary rat ventral midbrain neuron culture was used 3 DIV.
Tat-βsyn-degron and Tat-βsyn peptides were first dissolved in sterile water as a 25 mM stock solution and then diluted directly in the neurobasal culture media to make the desired working concentration. 20 mM MPP+iodide stock solution was made freshly each time and diluted in the neurobasal culture media directly to make the desired working concentration. For 48 hrs treatment, neuron culture media containing MPP+ and peptides were replaced every 24 hrs.
Brain tissues or cultured cells were lysed on ice in the lysis buffer and then the solution was centrifuged at 14,000 rpm for 10 min at 4° C. Next, the supernatant was collected and protein concentrations were determined using a BCA protein assay kit (Thermo Scientific, 23227). Equal amount of protein samples was mixed with 4× sample buffer, boiled at 100° C. for 5 min, and separated on 10% sodium dodecyl sulphate-polyacrylamide gel electrophoresis (SDS-PAGE). Proteins were then transferred to Immobilon-PTM polyvinylidene fluoride (PVDF) membranes (Bio-Rad, 162-0177). The membranes were blocked with 5% non-fat milk in Tris-buffered saline containing 0.1% Tween-20 (TBST) for 1 hr at room temperature, and then incubated overnight at 4° C. with primary antibody. After washing 3×5 min in TBST, membranes were incubated with horseradish peroxidase-conjugated secondary antibody for 1 hr at room temperature. After another three washes with TBST, protein was visualized in the Bio-Rad Imager using ECL western blotting substrate (Pierce, 32016). The band density of each protein was quantified by the Bio-Rad Quantity One software and the relative optical density was analyzed relative to the loading control β-actin on the same membrane.
For orientation: Immunoblotting shows a protein as a band on a membrane.

The target of assay [2] is T1, endogenous α-synuclein. The assay is described as follows: α-synuclein level in MPP+-treated ventral midbrain cultures, immunoblot. The format is cell-based. To be noted: 25 μM, 48 hrs, MPP+ 20 μM. The procedure: as §1, with “Primary rat cortical neuron culture was used 14 days in vitro (DIV) and primary rat ventral midbrain neuron culture was used 3 DIV.” left out
Brain tissues or cultured cells were lysed on ice in the lysis buffer and then the solution was centrifuged at 14,000 rpm for 10 min at 4° C. Next, the supernatant was collected and protein concentrations were determined using a BCA protein assay kit (Thermo Scientific, 23227). […] The band density of each protein was quantified by the Bio-Rad Quantity One software and the relative optical density was analyzed relative to the loading control β-actin on the same membrane.

On to “YGRKKRRQRRRRTKSGVYLVGRRRG (The sequence is synthesized (YGRKKRRQRRRRTKSGVYLVGRRRG)) [Tat-βsyn-degron]”, for which the “time course of knockdown of endogenous α-synuclein” value in the assay with endogenous α-synuclein [1] (50 μM bath application, primary cortical cultures) was “induced a time-dependent knockdown of endogenous α-synuclein”. For the same sequence, the “endogenous α-synuclein protein levels” value with endogenous α-synuclein [1] (bath application 24 hrs, 5-50 μM (control 50 μM), cortical neuron cultures) is reported as “robust reduction of endogenous α-synuclein protein levels in a dose-dependent manner”; with endogenous α-synuclein [2], “induced a robust reduction in endogenous α-synuclein protein levels”.
